According to article PMC3760020:

Target: T1, GFP-p73α wild type, O15350
T1 chain: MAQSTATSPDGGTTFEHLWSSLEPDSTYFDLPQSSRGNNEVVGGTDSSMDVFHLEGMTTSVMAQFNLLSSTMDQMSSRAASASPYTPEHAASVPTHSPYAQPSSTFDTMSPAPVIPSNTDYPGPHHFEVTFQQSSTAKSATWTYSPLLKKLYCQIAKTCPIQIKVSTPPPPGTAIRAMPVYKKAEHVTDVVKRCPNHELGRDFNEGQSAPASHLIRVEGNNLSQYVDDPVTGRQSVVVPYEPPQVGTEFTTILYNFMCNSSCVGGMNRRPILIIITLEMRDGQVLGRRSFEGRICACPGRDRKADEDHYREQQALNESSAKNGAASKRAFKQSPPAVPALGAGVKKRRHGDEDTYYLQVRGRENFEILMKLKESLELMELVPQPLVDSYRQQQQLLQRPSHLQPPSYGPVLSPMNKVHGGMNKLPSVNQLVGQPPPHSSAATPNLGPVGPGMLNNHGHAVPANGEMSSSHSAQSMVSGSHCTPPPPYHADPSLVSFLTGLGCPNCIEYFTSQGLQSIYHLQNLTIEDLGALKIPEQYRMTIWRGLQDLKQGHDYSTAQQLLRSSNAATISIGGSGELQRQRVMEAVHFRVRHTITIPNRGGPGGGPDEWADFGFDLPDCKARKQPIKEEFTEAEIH
Test: cross-linking
Conditions: remark: other sources report otherwise

B1: GFP-p73α wild type, O15350-1 1-636 (natural protein)
chain: MAQSTATSPDGGTTFEHLWSSLEPDSTYFDLPQSSRGNNEVVGGTDSSMDVFHLEGMTTSVMAQFNLLSSTMDQMSSRAASASPYTPEHAASVPTHSPYAQPSSTFDTMSPAPVIPSNTDYPGPHHFEVTFQQSSTAKSATWTYSPLLKKLYCQIAKTCPIQIKVSTPPPPGTAIRAMPVYKKAEHVTDVVKRCPNHELGRDFNEGQSAPASHLIRVEGNNLSQYVDDPVTGRQSVVVPYEPPQVGTEFTTILYNFMCNSSCVGGMNRRPILIIITLEMRDGQVLGRRSFEGRICACPGRDRKADEDHYREQQALNESSAKNGAASKRAFKQSPPAVPALGAGVKKRRHGDEDTYYLQVRGRENFEILMKLKESLELMELVPQPLVDSYRQQQQLLQRPSHLQPPSYGPVLSPMNKVHGGMNKLPSVNQLVGQPPPHSSAATPNLGPVGPGMLNNHGHAVPANGEMSSSHSAQSMVSGSHCTPPPPYHADPSLVSFLTGLGCPNCIEYFTSQGLQSIYHLQNLTIEDLGALKIPEQYRMTIWRGLQDLKQGHDYSTAQQLLRSSNAATISIGGSGELQRQRVMEAVHFRVRHTITIPNRGGPGGGPDEWADFGFDLPDCKARKQPIKEEFTEAEIH
  stoichiometry N: 4
